# Assay: immunofluorescence colocalisation with ER marker PDI (PCC)
# Conditions: glycan lost; control: wild-type hACE2, DMSO
substance,measurement,value
human ACE2 (hACE2): N90Q/N322Q/N546Q/N53Q/N103Q,localisation_or_trafficking,changes
